For data set [1], the target named is OmpF (endogenous, co-extracted with FepA^BPA) (E. coli (endogenous in BW25113)) (UniProt P02931). As to the kind of experiment: native MS; FepA^BPA preparations with co-extracted porins, 5 μM in 1% β-OG, 0.2 M ammonium acetate pH 6.9; make-up of the porin trimers.
In data set [2] the target is OmpF V177^BPA cross-linked to LPS (anion exchange peak 2) (E. coli) (UniProt P02931). Put plainly: native MS; purified OmpF samples, 5 μM in 1% β-OG, 0.2 M ammonium acetate pH 6.9; the OmpF trimer itself.
Data set [3] has as its target OmpF V177^BPA cross-linked to phospholipid (anion exchange peak 1) (E. coli) (UniProt P02931). Described as above.
The target in data set [4] is OmpF, wild type, purified (E. coli) (UniProt P02931). Described as above.
Data set [5] concerns the molecule itself. As to the kind of experiment: native MS; FepA^BPA preparations with co-extracted porins, 5 μM in 1% β-OG, 0.2 M ammonium acetate pH 6.9; make-up of the porin trimers.
Data set [6] deals with T1, OmpF (endogenous, co-extracted with FepA^BPA) (E. coli (endogenous in BW25113), UniProt P02931 23-362).
T1 construct: OmpF, 16-stranded β barrel porin of E. coli; Found as homotrimers and as heterotrimers with OmpC; also called OmpF/C; porins; source: endogenous, outer membrane of E. coli BW25113 ΔfepA
T1 sequence (looked up): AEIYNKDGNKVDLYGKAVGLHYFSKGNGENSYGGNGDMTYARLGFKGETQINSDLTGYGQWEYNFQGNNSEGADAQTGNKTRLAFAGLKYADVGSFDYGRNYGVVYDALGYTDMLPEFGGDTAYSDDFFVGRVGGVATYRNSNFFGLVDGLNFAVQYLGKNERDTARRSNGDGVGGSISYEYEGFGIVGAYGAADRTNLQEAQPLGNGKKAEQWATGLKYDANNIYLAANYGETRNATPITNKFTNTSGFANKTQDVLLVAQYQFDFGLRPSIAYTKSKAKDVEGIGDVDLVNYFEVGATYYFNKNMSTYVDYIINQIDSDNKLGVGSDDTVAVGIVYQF
Described as above. As to conditions: partners not purified.

Experimental findings from article PMC9629720, “Lipids mediate supramolecular outer membrane protein assembly in bacteria” (Science Advances, 2022) are described below.

The stoichiometry N is a count of units in the complex or per binding partner. In the case of “OmpF (endogenous, co-extracted with FepA^BPA) (from UniProt P02931 23-362) (natural protein)”, in data set [1], the stoichiometry N was determined as 3.

For “OmpF V177^BPA cross-linked to LPS (anion exchange peak 2) (from UniProt P02931 23-362) (natural protein)”, the stoichiometry N in data set [2] came to 3. Take “OmpF V177^BPA cross-linked to phospholipid (anion exchange peak 1) (from UniProt P02931 23-362) (natural protein)”: the stoichiometry N in data set [3] was 3. Regarding “OmpF, wild type, purified (from UniProt P02931 23-362) (natural protein)”, the stoichiometry N in data set [4] was 3.

B1: OmpC (endogenous, co-extracted with FepA^BPA) (natural protein, E. coli (endogenous in BW25113), UniProt P06996 22-367, looked up)
chain: AEVYNKDGNKLDLYGKVDGLHYFSDNKDVDGDQTYMRLGFKGETQVTDQLTGYGQWEYQIQGNSAENENNSWTRVAFAGLKFQDVGSFDYGRNYGVVYDVTSWTDVLPEFGGDTYGSDNFMQQRGNGFATYRNTDFFGLVDGLNFAVQYQGKNGNPSGEGFTSGVTNNGRDALRQNGDGVGGSITYDYEGFGIGGAISSSKRTDAQNTAAYIGNGDRAETYTGGLKYDANNIYLAAQYTQTYNATRVGSLGWANKAQNFEAVAQYQFDFGLRPSLAYLQSKGKNLGRGYDDEDILKYVDVGATYYFNKNMSTYVDYKINLLDDNQFTRDAGINTDNIVALGLVYQF
notes: OmpC, porin, structural homolog of OmpF, E. coli; Found as homotrimers and as heterotrimers with OmpF; also called OmpF/C; porins; source: endogenous, outer membrane of E. coli BW25113 ΔfepA
As to B1, the “stoichiometry N” value in data set [5] and in data set [6] was 3 throughout.
